Assay results taken from paper PMC4304843, “Human Mitochondrial Hsp70 (Mortalin): Shedding Light on ATPase Activity, Interaction with Adenosine Nucleotides, Solution Structure and Domain Organization” (PLoS ONE, 2015).

Tests used:
[1] = biological target: Human Hsp70-1A, recombinant (human) (UniProt P0DMV8)
[2] = biological target: Human mitochondrial Hsp70 (mortalin), recombinant (human) (UniProt P38646)
Chain of Human mitochondrial Hsp70 (mortalin), recombinant (human) (P38646 47-679): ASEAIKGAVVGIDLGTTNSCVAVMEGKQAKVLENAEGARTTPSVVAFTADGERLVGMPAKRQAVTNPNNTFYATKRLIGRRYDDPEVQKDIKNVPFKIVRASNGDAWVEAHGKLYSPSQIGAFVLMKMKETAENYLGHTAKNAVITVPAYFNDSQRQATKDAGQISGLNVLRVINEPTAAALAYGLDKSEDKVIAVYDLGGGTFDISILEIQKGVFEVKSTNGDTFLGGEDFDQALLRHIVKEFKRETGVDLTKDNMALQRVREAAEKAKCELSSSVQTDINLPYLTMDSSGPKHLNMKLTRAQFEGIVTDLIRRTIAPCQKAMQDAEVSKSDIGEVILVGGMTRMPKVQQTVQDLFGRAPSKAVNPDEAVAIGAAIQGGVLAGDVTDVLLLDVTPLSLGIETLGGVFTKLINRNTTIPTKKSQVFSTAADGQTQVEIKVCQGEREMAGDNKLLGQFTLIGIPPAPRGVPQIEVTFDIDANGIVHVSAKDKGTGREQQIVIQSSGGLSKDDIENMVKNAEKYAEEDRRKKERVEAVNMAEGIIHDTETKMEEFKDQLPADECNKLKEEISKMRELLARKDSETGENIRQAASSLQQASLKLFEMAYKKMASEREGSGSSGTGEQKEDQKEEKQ

Chain of Human Hsp70-1A, recombinant (human) (P0DMV8 whole entry): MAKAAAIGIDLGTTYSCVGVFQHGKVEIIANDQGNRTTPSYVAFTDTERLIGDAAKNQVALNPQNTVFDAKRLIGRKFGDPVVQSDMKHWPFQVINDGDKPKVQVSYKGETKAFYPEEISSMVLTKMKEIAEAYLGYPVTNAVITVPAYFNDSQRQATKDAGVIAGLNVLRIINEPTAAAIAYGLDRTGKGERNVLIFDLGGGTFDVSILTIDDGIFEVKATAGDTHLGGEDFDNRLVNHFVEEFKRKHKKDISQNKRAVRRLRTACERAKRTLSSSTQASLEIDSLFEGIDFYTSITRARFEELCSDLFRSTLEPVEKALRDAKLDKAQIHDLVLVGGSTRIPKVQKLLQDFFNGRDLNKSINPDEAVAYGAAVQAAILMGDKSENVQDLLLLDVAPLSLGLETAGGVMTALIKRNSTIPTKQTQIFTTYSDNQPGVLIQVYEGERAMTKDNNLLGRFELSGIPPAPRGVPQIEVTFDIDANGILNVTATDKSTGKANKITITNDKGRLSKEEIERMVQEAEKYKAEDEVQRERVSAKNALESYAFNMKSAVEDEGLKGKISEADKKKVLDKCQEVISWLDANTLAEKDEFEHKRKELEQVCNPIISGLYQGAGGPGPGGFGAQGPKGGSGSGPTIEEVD

NRLLLTGY [NR peptide (NRLLLTGY)] showed an EC50 of the stimulation of the basal ATPase activity of Hsp70-1A by NR peptide titration (1 mmol/L ATP, 37°C) [1] of 170 µM, a relative stimulation of the basal ATPase activity of Hsp70-1A at increasing NR peptide concentrations; maximum reached at 500 μmol/L NR peptide [1] of 15% and an EC50 of the stimulation of the basal ATPase activity of mortalin by NR peptide titration (1 mmol/L ATP, 37°C) [2] of 7 µM. It also gave a relative stimulation of the basal ATPase activity of mortalin at increasing NR peptide concentrations; maximum reached at 100 μmol/L NR peptide [2] of 25%.
